Data as given in publication PMC8092281, “Two Distinct Conformations in 34 FliF Subunits Generate Three Different Symmetries within the Flagellar MS-Ring” (mBio, 2021).

Target: the molecule itself
Assay: cryo-EM structure; single-particle cryoEM of the purified Salmonella MS-FliG ring complex in 25 mM Tris-HCl pH 8.0, 50 mM NaCl, 1 mM EDTA, 0.1% DDM; 8.6 Å (C1) and 6.1 Å (C11) reconstructions

B1: Salmonella FliF (MS-ring of the purified MS-FliG ring complex) (natural protein, UniProt P15928 1-560, looked up)
chain: MSATASTATQPKPLEWLNRLRANPRIPLIVAGSAAVAIVVAMVLWAKTPDYRTLFSNLSDQDGGAIVAQLTQMNIPYRFANGSGAIEVPADKVHELRLRLAQQGLPKGGAVGFELLDQEKFGISQFSEQVNYQRALEGELARTIETLGPVKSARVHLAMPKPSLFVREQKSPSASVTVTLEPGRALDEGQISAVVHLVSSAVAGLPPGNVTLVDQSGHLLTQSNTSGRDLNDAQLKFANDVESRIQRRIEAILSPIVGNGNVHAQVTAQLDFANKEQTEEHYSPNGDASKATLRSRQLNISEQVGAGYPGGVPGALSNQPAPPNEAPIATPPTNQQNAQNTPQTSTSTNSNSAGPRSTQRNETSNYEVDRTIRHTKMNVGDIERLSVAVVVNYKTLADGKPLPLTADQMKQIEDLTREAMGFSDKRGDTLNVVNSPFSAVDNTGGELPFWQQQSFIDQLLAAGRWLLVLVVAWILWRKAVRPQLTRRVEEAKAAQEQAQVRQETEEAVEVRLSKDEQLQQRRANQRLGAEVMSQRIREMSDNDPRVVALVIRQWMSNDHE
notes: FliF, flagellar M-ring protein, Salmonella; 60-kDa protein with two transmembrane helices and a large periplasmic region; also called St-FliF; copies: 34
- stoichiometry N: 34
